T1: EcFicT (E. coli Fic toxin-like protein, wild type) (Escherichia coli, UniProt P20605 3-200)
T1 construct: EcFicT, product of the fic gene (renamed ecficT) of Escherichia coli; UniProt P20605; model of PDB 5JFZ covers residues 10-81, 88-195; also called EcFicTwt; Fic protein from E. coli
T1 sequence: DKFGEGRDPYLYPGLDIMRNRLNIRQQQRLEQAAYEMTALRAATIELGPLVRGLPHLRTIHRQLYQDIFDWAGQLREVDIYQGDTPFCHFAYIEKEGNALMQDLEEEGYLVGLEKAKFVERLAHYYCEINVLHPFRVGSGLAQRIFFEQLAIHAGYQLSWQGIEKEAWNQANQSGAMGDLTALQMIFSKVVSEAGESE

T2: EcFicT_(G55R) (Escherichia coli, UniProt P20605 3-200, G55R)
T2 construct: EcFicT of Escherichia coli, UniProt P20605, with G55R (the change encoded by the temperature-sensitive fic-1 allele), introduced by a single base-pair mutation; model of PDB 5JFF covers residues 10-15, 17-198; G55R is the change of the fic-1 mutant allele described by Utsumi et al; here it was introduced into the plasmid by mutagenesis; also called G55R point mutant of EcFicT; product of the …
T2 sequence: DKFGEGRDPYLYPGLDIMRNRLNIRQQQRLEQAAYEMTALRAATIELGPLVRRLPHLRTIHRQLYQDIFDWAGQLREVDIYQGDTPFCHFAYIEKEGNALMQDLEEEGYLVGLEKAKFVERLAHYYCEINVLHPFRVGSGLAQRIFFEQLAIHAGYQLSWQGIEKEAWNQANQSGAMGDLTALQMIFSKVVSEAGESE


How the values were obtained:
[1] = target: T1, EcFicT (E. coli Fic toxin-like protein, …); assay: SEC-MALS; conditions: both partners purified
[2] = target: T2, EcFicT_(G55R); assay: SEC-MALS; conditions: both partners purified

Binder	stoichiometry N [1]	stoichiometry N [2]
EcFicA (cognate antitoxin of EcFicT, wild type) (natural protein, Escherichia coli, EcFicA, product of the yhfG gene (renamed ecficA) of Escherichia coli; UniProt P0ADX5; model of PDB 5JFF covers residues 3-53; also called EcFicAwt; YhfG) KKLTDKQKSRLWELQRNRNFQASRRLEGVEMPLVTLTAAEALARLEELRSHYER	1	1
EcFicA_(E28G) (natural protein, Escherichia coli, model of PDB 5JFZ covers residues 5-53; also called antitoxin mutant EcFicA_(E28G)) KKLTDKQKSRLWELQRNRNFQASRRLGGVEMPLVTLTAAEALARLEELRSHYER	1	1

Reference: article PMC5033356, “Crystal Structure of the Escherichia coli Fic Toxin-Like Protein in Complex with Its Cognate Antitoxin” (PLoS ONE, 2016)
